Source: patent publication US20240358755A1 (IMMATICS BIOTECHNOLOGIES, published 2024)

These binders were tested against T1, HLA-A*02:01 (human) (assay: UV peptide exchange, anti-b2m ELISA; exchange yield grade).
T1 construct: Peptide-receptive MHC class I monomer in the UV-ligand exchange assay
From the text: (§1) Candidate peptides for T cell based therapies according to the present invention were further tested for their MHC binding capacity (affinity). The individual peptide-MHC complexes were produced by UV-ligand exchange, where a UV-sensitive peptide is cleaved upon UV-irradiation and exchanged with the peptide of interest as analyzed. Only peptide candidates that can effectively bind and stabilize the peptide-receptive MHC molecules prevent dissociation of the MHC complexes. To determine the yield of the exchange reaction, an ELISA was performed based on the detection of the light chain (β2m) of stabilized MHC complexes. The assay was performed as generally described in Rodenko et al. (Rodenko et al., 2006).
(§2) 96 well MAXISorp plates (NUNC) were coated over night with 2 μg/ml streptavidin in PBS at room temperature, washed 4× and blocked for 1 h at 37° C. in 2% BSA containing blocking buffer. […] Peptide-MHC monomers of the UV-exchange reaction were diluted 100-fold in blocking buffer. Samples were incubated for 1 h at 37° C., washed four times, incubated with 2 μg/ml HRP conjugated anti-β2m for 1 h at 37° C., washed again and detected with TMB solution that is stopped with […]. Absorption was measured at 450 nm.
For LLGVVSHSV, the peptide exchange yield was at least 75%. In the case of FLLLEKGGEL, the peptide exchange yield is reported as at least 75%. For IQAPALLKV, the peptide exchange yield was at least 75%. For ALIVLHLSL, the peptide exchange yield was 20 to 50%. Work on IIIDRILLL yielded a peptide exchange yield of at least 75%. Binder LLSRGILIL has a peptide exchange yield of at least 75%. For SLFPISLTV, the peptide exchange yield was at least 75%. With SLSKLVATV the peptide exchange yield was at least 75%. LVFESVVAA was tested, and the peptide exchange yield was at least 75%. For SLKSSILFL, the peptide exchange yield was 50 to 75%. VLQSLQHEL was tested, and the peptide exchange yield was at least 75%. Binder ALGPMAFRV has a peptide exchange yield of at least 75%. TLNVLITL was tested, and the peptide exchange yield was 20 to 50%. Work on SLQESLPNA yielded a peptide exchange yield of 50 to 75%. ILMILQPQL gave a peptide exchange yield of at least 75%. Work on RLQEGLAAL yielded a peptide exchange yield of at least 75%. GLLDAFLRL gave a peptide exchange yield of at least 75%.

These binders were tested against T2, HLA-B*07:02 (human) in the same assay as above.
T2 construct: Peptide-receptive monomer in the UV-ligand exchange assay
From the text: as §1, §2
Binder SPLPHLGPL has a peptide exchange yield of 50 to 75%. With APLRAGWAA the peptide exchange yield was at least 75%. IPLHFSTAF was tested, and the peptide exchange yield was at least 75%. For RPQGVGPAA, the peptide exchange yield was at least 75%. With RPSLPCRSF the peptide exchange yield was 50 to 75%. For APGPRSQGL, the peptide exchange yield was 50 to 75%. Binder SLRVPSPAL has a peptide exchange yield of 50 to 75%. ASRIQVILL showed a peptide exchange yield of 50 to 75%. In the case of SPIGLSLIL, the peptide exchange yield is reported as at least 75%. MPANFETIGF was tested, and the peptide exchange yield was at least 75%. LPALLRSL showed a peptide exchange yield of at least 75%. In the case of APLLPGPAA, the peptide exchange yield is reported as at least 75%. SPAPSLARFLSL showed a peptide exchange yield of at least 75%. For APQPRSLAA, the peptide exchange yield was at least 75%. With VPHHLLSSV the peptide exchange yield was at least 75%. Work on YPDVPIGQL yielded a peptide exchange yield of 50 to 75%. With SPVSASWIL the peptide exchange yield was at least 75%. TPSHSTPSF showed a peptide exchange yield of 50 to 75%. Work on MPAFLSRASAL yielded a peptide exchange yield of at least 75%. SPSSNSREL gave a peptide exchange yield of 50 to 75%. MPKLFLTAC gave a peptide exchange yield of at least 75%. MPCTTILRI showed a peptide exchange yield of at least 75%. For RPIWDVRSA, the peptide exchange yield was at least 75%. Binder MPFLKVPPL has a peptide exchange yield of at least 75%. LPHPVNSGL was tested, and the peptide exchange yield was 50 to 75%. Binder TPLTRTTL has a peptide exchange yield of 50 to 75%. APSLARFLSL showed a peptide exchange yield of at least 75%. For AVDLGVLEL, the peptide exchange yield was 50 to 75%. For SPSSPLLLLA, the peptide exchange yield was 50 to 75%. Work on LPVHGPLPLLL yielded a peptide exchange yield of 50 to 75%. YVGPTRLEL gave a peptide exchange yield of at least 75%. Binder RAPLPLLLL has a peptide exchange yield of 50 to 75%. For NPELLVILL, the peptide exchange yield was 50 to 75%. RPSPVRVAAL showed a peptide exchange yield of at least 75%. For HPRESLNMLVAF, the peptide exchange yield was at least 75%. MPWVLMSPF showed a peptide exchange yield of at least 75%. SPVETRSLL was tested, and the peptide exchange yield was 50 to 75%. MPIQVLKGL was tested, and the peptide exchange yield was at least 75%. Work on IPISIFKMA yielded a peptide exchange yield of 50 to 75%. RPLILIRI gave a peptide exchange yield of 20 to 50%. VVHGGMSIF showed a peptide exchange yield of 20 to 50%. LPTRSLPAF gave a peptide exchange yield of 50 to 75%. With QPAPQPLL the peptide exchange yield was 50 to 75%. RPWLSSPTGL was tested, and the peptide exchange yield was at least 75%.

These binders were tested against T3, HLA-A*03:01 (human) in the same assay as above.
T3 construct: Peptide-receptive MHC class I monomer in the UV-ligand exchange assay
From the text: as §1, §2
Binder MTYQQPFSNR has a peptide exchange yield of at least 75%. KLLLLSSVK gave a peptide exchange yield of 50 to 75%. Binder AILVPQPPK has a peptide exchange yield of 50 to 75%. TLLSFKTVLFK gave a peptide exchange yield of at least 75%. VVRASSGLK was tested, and the peptide exchange yield was 50 to 75%. SLIPIVPFKS showed a peptide exchange yield of 20 to 50%. Binder AILLPQLPK has a peptide exchange yield of at least 75%.
